Data taken from PMC10270636.

Tests used:
Test in all cases: SEC; TSK-Gel G2000SWXL 7.8 x 300 mm column, Waters Alliance HPLC, detection at 220 nm; lyophilizate dissolved in water for injection and diluted, measured directly; peaks assigned as aggregates, tetramer and monomer
P00805 = system: P00805
[1] = molecular target: Spectrila (recombinant E. coli-derived L-asparaginase) (E. coli), P00805
[2] = molecular target: Onconase (E. coli-derived L-asparaginase preparation from India) (E. coli), P00805

| Molecule | percent tetramer (SEC peak area) (P00805) | other results |
| --- | --- | --- |
| Onconase (E. coli-derived L-asparaginase preparation from India) | 82.7%[*] |  |
| Spectrila (recombinant E. coli-derived L-asparaginase) | 99.4% |  |
| Spectrila (recombinant E. coli-derived L-asparaginase), P00805 23-348 (enzyme, modifications not checked) LPNITILATGGTIAGGGDSATKSNYTVGKVGVENLVNAVPQLKDIANVKGEQVVNIGSQDMNDDVWLTLAKKINTDCDKTDGFVITHGTDTMEETAYFLDLTVKCDKPVVMVGAMRPSTSMSADGPFNLYNAVVTAADKASANRGVLVVMNDTVLDGRDVTKTNTTDVATFKSVNYGPLGYIHNGKIDYQRTPARKHTSDTPFDVSKLNELPKVGIVYNYANASDLPAKALVDAGYDGIVSAGVGNGNLYKTVFDTLATAAKTGTAVVRSSRVPTGATTQDAEVDDAKYGFVASGTLNPQKARVLLQLALTQTKDPQQIQQIFNQY |  | stoichiometry N [1]: 4 |
| Onconase (E. coli-derived L-asparaginase preparation from India), P00805 23-348 (enzyme, modifications not checked) LPNITILATGGTIAGGGDSATKSNYTVGKVGVENLVNAVPQLKDIANVKGEQVVNIGSQDMNDDVWLTLAKKINTDCDKTDGFVITHGTDTMEETAYFLDLTVKCDKPVVMVGAMRPSTSMSADGPFNLYNAVVTAADKASANRGVLVVMNDTVLDGRDVTKTNTTDVATFKSVNYGPLGYIHNGKIDYQRTPARKHTSDTPFDVSKLNELPKVGIVYNYANASDLPAKALVDAGYDGIVSAGVGNGNLYKTVFDTLATAAKTGTAVVRSSRVPTGATTQDAEVDDAKYGFVASGTLNPQKARVLLQLALTQTKDPQQIQQIFNQY |  | stoichiometry N [2]: 4 |
